Source: IntAct's records for PubMed 27995898

B1: S-adenosylhomocysteine hydrolase-like protein 1 (Homo sapiens), O43865 (parent)
chain: MSMPDAMPLPGVGEELKQAKEIEDAEKYSFMATVTKAPKKQIQFADDMQEFTKFPTKTGRRSLSRSISQSSTDSYSSAASYTDSSDDEVSPREKQQTNSKGSSNFCVKNIKQAEFGRREIEIAEQDMSALISLRKRAQGEKPLAGAKIVGCTHITAQTAVLIETLCALGAQCRWSACNIYSTQNEVAAALAEAGVAVFAWKGESEDDFWWCIDRCVNMDGWQANMILDDGGDLTHWVYKKYPNVFKKIRGIVEESVTGVHRLYQLSKAGKLCVPAMNVNDSVTKQKFDNLYCCRESILDGLKRTTDVMFGGKQVVVCGYGEVGKGCCAALKALGAIVYITEIDPICALQACMDGFRVVKLNEVIRQVDVVITCTGNKNVVTREHLDRMKNSCIVCNMGHSNTEIDVTSLRTPELTWERVRSQVDHVIWPDGKRVVLLAEGRLLNLSCSTVPTFVLSITATTQALALIELYNAPEGRYKQDVYLLPKKMDEYVASLHLPSFDAHLTELTDDQAKYLGLNKNGPFKPNYYRY
partner: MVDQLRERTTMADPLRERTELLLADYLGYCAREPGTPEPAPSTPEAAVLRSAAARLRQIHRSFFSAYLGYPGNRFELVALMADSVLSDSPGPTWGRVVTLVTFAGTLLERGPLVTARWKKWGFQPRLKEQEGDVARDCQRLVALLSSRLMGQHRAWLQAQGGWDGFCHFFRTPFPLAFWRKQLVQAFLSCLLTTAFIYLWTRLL

Variants of: B1
Settings: with BCL2L10, Q9HD36

effect of a mutation on the interaction | Variant
with no effect | S68A
